The target in one assay is T1, human CD137 on cells (human, UniProt Q07011 24-255).
T1 construct: also called 4-1BB; TNFRSF9 (CHO-K1/human CD137 cells)
Nature of the assay: flow cytometry, CHO-K1 cells expressing human CD137, PE anti-human IgG Fc secondary, MFI (median). On the procedure:
Binding studies on CHO-K1 cells lines expressing CD137 were performed by standard flow cytometry-based staining procedures. CHO-K1 cells (generated by Alligator) were transfected with human or cynomolgus macaque CD137. A typical experiment would label approximately 100,000 cells per well, in 96-well plates, with a range of 100 nM to 0.05 nM binding molecule in 50 μL of saline buffer with 2% BSA and 2 mM EDTA, for 30 min on ice, followed by washes and incubation with PE-labeled secondary antibody, goat anti-human IgG Fcγ ([…]), for 20 minutes on ice. Signal from bound molecules was detected using a LSR-II™ or a Symphony A3 flow cytometer (BD Biosciences) and analyzed by FlowJo flow cytometry analysis software. Median fluorescence intensity (MFI-median) of bound molecules on live cells was determined after exclusion of doublets cells. Nonlinear regression analysis to determine EC₅₀ values was performed in GraphPad Prism 6® graphing and statistics software.
(In general: In flow cytometry, cells or beads pass a laser one at a time.)

The next assay concerns the target T2, FcγRI (CD64) (UniProt P12314 16-374, limits assumed).
T2 construct: whole, on cells
Description: flow cytometry, CHO cells stably expressing CD64, fluorescent anti-human IgG secondary, MFI (mean). An excerpt: (§1) ALG.APV-210 contains mutations introduced to prevent interaction with Fcγ receptors (FcγR) that could lead to FcγR-mediated T-cell activation or ADCC, ADCP, CDC etc. Binding of ALG.APV-210 was therefore tested on CHO cell transfectants stably expressing the following FcγR: FcγRI (CD64), FcγRIIa (CD32a His131), FcγRIIb (CD32b), FcγRIIIa (CD16a Val158 and CD16a Phe158), and FcγRIIIb (CD16b). Untransfected CHO cells were used as negative control. A control human IgG1 molecule was used as a positive control. Different concentrations of ALG.APV-210 or control IgG1 were incubated with the FcγR-expressing cell lines, washed, and labeled with a secondary anti-human IgG reagent. Binding of ALG.APV-210 and the control IgG1 was detected by flow cytometry.

For the next assay, the target named is T3, FcγRIIIa (CD16a Val158) (UniProt P08637 17-254, limits assumed).
T3 construct: whole, on cells; allotype Val158 as printed
T3 sequence (P08637 17-254 F176V limits assumed): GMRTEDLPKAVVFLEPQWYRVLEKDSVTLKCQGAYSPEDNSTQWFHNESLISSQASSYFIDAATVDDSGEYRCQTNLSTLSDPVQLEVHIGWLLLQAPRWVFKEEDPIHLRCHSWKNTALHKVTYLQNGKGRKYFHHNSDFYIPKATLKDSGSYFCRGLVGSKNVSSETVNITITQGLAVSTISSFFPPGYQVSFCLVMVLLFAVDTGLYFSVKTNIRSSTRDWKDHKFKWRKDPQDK
Nature of the assay: flow cytometry, CHO cells stably expressing CD16a Val158, fluorescent anti-human IgG secondary, MFI (mean).
Excerpt: as §1

The target in assay [1] is T4, human 5T4 on cells (human, UniProt Q13641 32-420).
T4 sequence: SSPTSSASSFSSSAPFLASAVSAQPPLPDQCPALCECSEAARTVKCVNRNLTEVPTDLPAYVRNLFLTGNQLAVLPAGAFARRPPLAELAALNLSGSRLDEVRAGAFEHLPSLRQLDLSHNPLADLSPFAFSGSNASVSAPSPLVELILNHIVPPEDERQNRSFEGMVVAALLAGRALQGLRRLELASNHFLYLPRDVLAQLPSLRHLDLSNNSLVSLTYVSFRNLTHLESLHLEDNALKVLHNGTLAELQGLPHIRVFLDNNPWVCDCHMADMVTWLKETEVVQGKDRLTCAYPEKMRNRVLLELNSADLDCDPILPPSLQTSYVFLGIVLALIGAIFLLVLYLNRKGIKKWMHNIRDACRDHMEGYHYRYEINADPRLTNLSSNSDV
Description: cell-based or functional assay.

Assay [2] addresses T4, human 5T4 on cells. Description: cell-based or functional assay. The source holds these as a separate data set.
Assay [3] deals with T5, cynomolgus CD137 on cells (cynomolgus macaque, UniProt A9YYE7 24-254).
T5 construct: whole, on cells; also called CHO-K1/cynomolgus CD137 cell line; cynomolgus monkey CD137 on CD3-stimulated primary CD8 T cells
T5 sequence (A9YYE7 entry or part of it): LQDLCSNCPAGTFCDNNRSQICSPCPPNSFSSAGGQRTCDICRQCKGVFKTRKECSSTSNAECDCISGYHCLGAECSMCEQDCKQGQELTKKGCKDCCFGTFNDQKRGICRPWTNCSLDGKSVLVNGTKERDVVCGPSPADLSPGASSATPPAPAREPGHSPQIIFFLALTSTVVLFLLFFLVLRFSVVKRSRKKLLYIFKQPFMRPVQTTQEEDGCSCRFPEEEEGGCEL
Description: flow cytometry, CD8 T cells gated from CD3-stimulated cynomolgus PBMC, biotinylated antibody + streptavidin-APC, exp 1, n=3 donors. On the procedure: Following 48 h of incubation with or without CD3, human and cynomolgus PBMC were harvested, pooled, recounted and diluted in FACS buffer (PBS+0.5% BSA, 0.05% NaN₃) to a concentration of 5×10⁶ cells/mL. 50 μL (0.25×10⁶ cells) of cell solution was added to a 96-well FACS staining plate (Falcon #351190). Following 10 min of Fc-blocking in RT using Beriglobin (hIgG, 200 μg/mL), cells were washed in FACS buffer and then incubated for 1 h in 4° C. with 100 μL of the biotinylated ALG.APV-210 or negative control. […] Cells were analysed for ALG.APV-210 binding using flow cytometry by gating on viable, single cells expressing CD3 and CD8. MFI values (FMO subtracted) from 2 independent experiments as well as normalized pooled data from 2 experiments and EC₅₀-values were determined and plotted using GraphPad Prism 7, non-linear regression log (agonist) vs. normalized response—variable slope, n=6 donors/group.
In ELISA tests, the binding of biotinylated ALG.APV-210 to CD137 was similar to that of the non-biotinylated ALG.APV-210 (0.6 nM vs. 0.7 nM). The binding (EC₅₀) of the biotinylated ALG.APV-210 to its immunomodulatory target CD137 when expressed on activated primary human and cynomolgus CD8 T cells from CD3 stimulated PBMC was assessed and compared between the two species as well as to unstimulated cells. […]

T2 sequence (P12314 16-374 limits assumed): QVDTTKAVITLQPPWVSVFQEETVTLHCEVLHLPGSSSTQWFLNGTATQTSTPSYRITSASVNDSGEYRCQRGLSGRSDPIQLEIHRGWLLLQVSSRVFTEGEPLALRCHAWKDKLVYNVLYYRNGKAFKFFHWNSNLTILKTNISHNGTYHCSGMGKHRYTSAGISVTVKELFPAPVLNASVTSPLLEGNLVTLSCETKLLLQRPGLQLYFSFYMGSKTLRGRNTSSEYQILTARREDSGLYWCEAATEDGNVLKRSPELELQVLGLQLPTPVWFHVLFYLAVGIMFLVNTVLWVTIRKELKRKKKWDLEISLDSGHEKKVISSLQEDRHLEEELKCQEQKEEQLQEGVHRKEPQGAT
T1 sequence (Q07011 24-255 limits assumed): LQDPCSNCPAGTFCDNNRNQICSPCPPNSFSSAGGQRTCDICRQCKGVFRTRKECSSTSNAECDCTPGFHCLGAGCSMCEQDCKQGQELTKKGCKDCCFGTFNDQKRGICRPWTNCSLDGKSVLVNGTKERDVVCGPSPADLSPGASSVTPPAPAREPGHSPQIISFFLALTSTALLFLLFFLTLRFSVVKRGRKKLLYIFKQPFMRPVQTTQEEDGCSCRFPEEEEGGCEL

B1: ALG.APV-187 (bispecific antibody)
chain: EVQLLESGGGLVQPGGSLRLSCAASGFTFSHGSMYWVRQAPGKGLEWVSSISSGSGSTYYADSVKGRFTISHDNSKNTLYLQMNSLRAEDTAVYYCARSSYYGSYYSIDYWGQGTLVTVSSGGGGSGGGGSGGGGSGGGGSDIQMTQSPSSLSASVGDRVTITCRASQSISSYLNWYQQKPGKAPKLLIYAASSLQSGVPSRFSGSGSGTDFTLTISSLQPEDFATYYCQQYYDNLPTFGQGTKLEIKSSEPKSSDKTHTCPPCPAPEAAGAPSVFLFPPKPKDTLMISRTPEVTCVVVDVSHEDPEVKFNWYVDGVEVHNAKTKPREEQYNSTYRVVSVLTVLHQDWLNGKEYKCAVSNKALPAPIEKTISKAKGQPREPQVYTLPPSRDELTKNQVSLTCLVKGFYPSDIAVEWESNGQPENNYKTTPPVLDSDGSFFLYSKLTVDKSRWQQGNVFSCSVMHEALHNHYTQKSLSLSPGSGGGGSGGGGSGGGGSPSEVQLLESGGGLVQPGGSLRLSCAASGFTFSSYAMSWVRQAPGKCLEWVSAISGSGGSTYYADSVKGRFTISRDNSKNTLYLQMNSLRAEDTAVYYCARYYGGYYSAWMDYWGQGTLVTVSSGGGGSGGGGSGGGGSGGGGSDIQMTQSPSSLSASVGDRVTITCRASQSISSFLNWYQQKPGKAPKLLIYAASSLQSGVPSRFSGSGSGTDFTLTISSLQPEDSATYYCQQTYGYLHTFGCGTKLEIKR
notes: Optimized ADAPTIR scFv-Fc-scFv homodimer with stabilizing disulfide in the 1210 scFv
Usually EC50 stands for the midpoint of the concentration-response curve. Turning to B1, the EC50 in the assay with human CD137 on cells was found to be 900 pM.

B2: ALG.APV-210 (bispecific antibody)
chain: EVQLLESGGGLVQPGGSLRLSCAASGFTFSHGSMYWVRQAPGKGLEWVSSISSGSGSTYYADSVKGRFTISHDNSKNTLYLQMNSLRAEDTAVYYCARSSYYGSYYSIDYWGQGTLVTVSSGGGGSGGGGSGGGGSGGGGSDIQMTQSPSSLSASVGDRVTITCRASQSISSYLNWYQQKPGKAPKLLIYAASSLQSGVPSRFSGSGSGTDFTLTISSLQPEDFATYYCQQYYDNLPTFGQGTKLEIKEPKSSDKTHTCPPCPAPEAAGAPSVFLFPPKPKDTLMISRTPEVTCVVVDVSHEDPEVKFNWYVDGVEVHNAKTKPREEQYNSTYRVVSVLTVLHQDWLNGKEYKCAVSNKALPAPIEKTISKAKGQPREPQVYTLPPSRDELTKNQVSLTCLVKGFYPSDIAVEWESNGQPENNYKTTPPVLDSDGSFFLYSKLTVDKSRWQQGNVFSCSVMHEALHNHYTQKSLSLSPGSGGGGSGGGGSGGGGSPSEVQLLESGGGLVQPGGSLRLSCAASGFTFSSYAMSWVRQAPGKCLEWVSAISGSGGSTYYADSVKGRFTISRDNSKNTLYLQMNSLRAEDTAVYYCARYYGGYYSAWMDYWGQGTLVTVSSGGGGSGGGGSGGGGSGGGGSDIQMTQSPSSLSASVGDRVTITCRASQSISSFLNWYQQKPGKAPKLLIYAASSLQSGVPSRFSGSGSGTDFTLTISSLQPEDSATYYCQQTYGYLHTFGCGTKLEIKR
notes: Optimized ADAPTIR scFv-Fc-scFv homodimer with stabilizing disulfide in the 1210 scFv; also called 5T4-CD137 bispecific antibody
In the case of B2, the binding result with FcγRI (CD64) is listed as “no binding (tested: 1000 nM)”. Moreover, the binding result with FcγRIIIa (CD16a Val158) is reported as “no binding (tested: 1000 nM)”. Also, the “EC50 (nM), IFNγ release of human CD8+ T cells with HCT116 cells” value in the assay with human 5T4 on cells [1] was determined as 0.17 nM. Moreover, in the assay with human 5T4 on cells [2], the “maximal IFNγ release with CT26-h5T4^low cells relative to CT26-h5T4^high cells” value was 82% and the “maximal IFNγ release with CT26-wt cells (no 5T4) relative to CT26-h5T4^high cells” value came out at 7%.

B3: biotinylated ALG.APV-210 (bispecific antibody)
chain: B2 chain
notes: also called ALG.APV-210 (biotinylated for FACS detection)
The EC50 (read off the curve) is the concentration needed to bring the measured effect to its halfway point. As for B3, the concentration for a half-maximal effect (EC50 (read off the curve)) in assay [3] is roughly 300 pM.

Source of the values: patent US20190016816A1 (APTEVO RESEARCH AND DEVELOPMENT, published 2019).
